Source: paper doi:10.1101/2024.12.07.627365 (bioRxiv, 2024)

Target: T1, Extended FH2 FMN1 (UniProt Q05860 961-1466)
T1 sequence (looked up): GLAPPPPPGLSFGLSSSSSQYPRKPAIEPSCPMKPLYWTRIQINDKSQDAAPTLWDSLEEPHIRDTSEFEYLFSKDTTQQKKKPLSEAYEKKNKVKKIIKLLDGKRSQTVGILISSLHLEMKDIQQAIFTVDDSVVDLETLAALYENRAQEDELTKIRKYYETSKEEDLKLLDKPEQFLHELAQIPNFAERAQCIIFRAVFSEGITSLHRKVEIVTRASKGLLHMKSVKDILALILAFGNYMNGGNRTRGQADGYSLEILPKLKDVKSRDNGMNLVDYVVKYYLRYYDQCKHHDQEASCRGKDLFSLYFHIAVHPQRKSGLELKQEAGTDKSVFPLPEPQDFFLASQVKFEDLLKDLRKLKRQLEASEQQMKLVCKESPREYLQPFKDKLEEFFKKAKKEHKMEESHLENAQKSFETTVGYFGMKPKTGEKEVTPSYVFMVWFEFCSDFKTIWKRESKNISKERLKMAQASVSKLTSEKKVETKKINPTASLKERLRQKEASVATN
Assay: SPR

B1: N-terminal WW1-WW2 FNBP4 (domain or fragment, UniProt Q8N3X1 214-629, looked up)
chain: GIEMGDWQEVWDENTGCYYYWNTQTNEVTWELPQYLATQVQGLQHYQPSSVPGAETSFVVNTDIYSKEKTISVSSSKSGPVIAKREVKKEVNEGIQALSNSEEEKKGVAASLLAPLLPEGIKEEEERWRRKVICKEEPVSEVKETSTTVEEATTIVKPQEIMLDNIEDPSQEDLCSVVQSGESEEEEEQDTLELELVLERKKAELRALEEGDGSVSGSSPRSDISQPASQDGMRRLMSKRGKWKMFVRATSPESTSRSSSKTGRDTPENGETAIGAENSEKIDENSDKEMEVEESPEKIKVQTTPKVEEEQDLKFQIGELANTLTSKFEFLGINRQSISNFHVLLLQTETRIADWREGALNGNYLKRKLQDAAEQLKQYEINATPKGWSCHWDRDHRRYFYVNEQSGESQWEFPDG
In the case of B1, the Kd is reported as 36.5 nM, the koff is reported as 0.000803 s⁻¹ and the kon is reported as 22500 M⁻¹ s⁻¹.
